Results as given in patent US5719041.

What was measured:
[1] = target: Bovine chymotrypsin (bovine) (UniProt P00766)
Bovine trypsin (bovine) = Bovine trypsin (bovine) (UniProt P00760)
[2] = target: Human Factor XIIa (human) (UniProt P00748)
Human Factor XIa (human) = Human Factor XIa (human) (UniProt P03951)
Human Factor Xa (human) [3] = target: Human Factor Xa (human) (UniProt P00742)
[4] = target: Human activated protein C (human) (UniProt P04070)
[5] = target: Human leukocyte elastase (human) (UniProt P08246)
[6] = target: Human plasma kallikrein (human) (UniProt P03952)
Human plasmin (human) = Human plasmin (human) (UniProt P00747)
Human thrombin (human) = Human thrombin (human) (UniProt P00734)
[7] = target: Single chain tissue plasminogen activator (human) (UniProt P00750)
[8] = target: Tissue factor·Factor VIIa complex (human Factor VIIa with recombinant human TF1-243) (human) (UniProt P08709)
[9] = target: Human Factor XIIa (human) (UniProt P00748); remark: listed apart in the source
Human Factor Xa (human) [10] = target: Human Factor Xa (human) (UniProt P00742); remark: listed apart in the source
[11] = target: Human plasma kallikrein (human) (UniProt P03952); remark: listed apart in the source
[12] = target: T1, MeOSuc-Ala-Ala-Pro-Val-MCA
T1 sequence (peptide, N-terminal MeOSuc; C-terminal MCA): AAPV

Sequence of Human leukocyte elastase (P08246 30-247 limits assumed): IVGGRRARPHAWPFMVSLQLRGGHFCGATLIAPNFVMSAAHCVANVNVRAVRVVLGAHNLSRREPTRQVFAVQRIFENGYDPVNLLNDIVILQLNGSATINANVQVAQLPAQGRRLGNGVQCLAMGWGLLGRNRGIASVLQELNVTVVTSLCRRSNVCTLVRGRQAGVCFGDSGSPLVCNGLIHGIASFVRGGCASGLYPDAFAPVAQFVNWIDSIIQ

Substance | Percent Activity of protease with 100 nM inhibitor [1] [%] | Percent Activity of protease with 100 nM inhibitor (Bovine trypsin (bovine)) [%] | Percent Activity of protease with 100 nM inhibitor [2] [%] | Percent Activity of protease with 100 nM inhibitor (Human Factor XIa (human)) [%] | Percent Activity of protease with 100 nM inhibitor (Human Factor Xa (human) [3]) [%] | Percent Activity of protease with 100 nM inhibitor [4] [%] | Percent Activity of protease with 100 nM inhibitor [5] [%] | Percent Activity of protease with 100 nM inhibitor [6] [%] | Percent Activity of protease with 100 nM inhibitor (Human plasmin (human)) [%] | Percent Activity of protease with 100 nM inhibitor (Human thrombin (human)) [%] | Percent Activity of protease with 100 nM inhibitor [7] [%] | Percent Activity of protease with 100 nM inhibitor [8] [%] | concentration giving 10-fold prolongation of clotting time, APTT assay in normal human plasma [9] [µM] | concentration giving 10-fold prolongation of clotting time, PT assay in normal human plasma (Human Factor Xa (human) [10]) [µM] | concentration giving 10-fold prolongation of clotting time, APTT assay in normal human plasma [11] [µM] | Km of the substrate with HLE [12] [µM]
Ecotin (recombinant wild type, E. coli periplasmic protein, 142 amino acid residues) (from UniProt P23827) | 0 | 0 | 0 | 79 | 0 | 99 | 0 | 0 | 100 | 98 | 100 | 99 | 0.3 | 2 | 0.3 | 
Ecotin M84K mutant (from UniProt P23827) | 1 | 0 | 0 | 12 | 2 | 65 | 85 | 2 | 9 | 16 | 100 | 92 |  |  |  | 
Ecotin M84R mutant (from UniProt P23827) | 0 | 0 | 1 | 5 | 1 | 50 | 88 | 1 | 10 | 4 | 100 | 87 |  |  |  | 
Human leukocyte elastase (from UniProt P08246) (enzyme) |  |  |  |  |  |  |  |  |  |  |  |  |  |  |  | 150
